Experimental data: patent US20230340069A1

Columns and labels:
human IgG1 = assay: ELISA, IgG1 antibody coated on plate, detection with Strep-Tactin-HRP
[1] = target: Polyclonal human IgG Gammanorm (human); assay: Fc binding protein coupled to Praesto Pure45 agarose beads; polyclonal human IgG Gammanorm (2.2 mg/ml) loaded; mass of hIgG injected at 10% breakthrough, 6 min residence time

Substance	Kd (human IgG1) [nM]	dynamic binding capacity [1] [mg/mL]
Protein A domain Z	3.4	
R PROTEIN A		37.4
